In paper PMC5663869:

Tests used:
BAZ2B PHD–BRD (human) [1] = molecular target: BAZ2B PHD–BRD (human) (UniProt Q9UIF8); assay: ITC; iTC200, 25 °C; 150–260 μM sample, 1.5–4 mM titrant; one-site binding model; n = 4
BAZ2B PHD domain (human) = BAZ2B PHD domain (human) (UniProt Q9UIF8); assay: as above
BAZ2B PHD–BRD (human) [2] = molecular target: BAZ2B PHD–BRD (human) (UniProt Q9UIF8); assay: NMR titration; H3K14ac titrated into 15N-labelled PHD–BRD at peptide/protein ratios 0.5, 1, 1.5, 2 and 4; Kd estimated apart from BRD and from PHD residues
H3K4me3 (1-21) = assay: ITC; iTC200, 25 °C, stirring 800 rpm; sample 150–260 μM, titrant 1.5–4 mM; one-site binding model; the figure legends on these data give mean ± S.D. (n = 4)
H3K4me1 (1-21) = assay: as above
H3K14ac T6C = assay: as above
H3K4me2 (1-21) = assay: as above
H3T6C (1-21) = assay: as above
Sequence of H3T6C (1-21) (peptide, as listed by the source T6C (stands in the printed letters)): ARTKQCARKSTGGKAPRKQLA

H3K4me2K14ac = assay: as above
H3K4me1K14ac = assay: as above
H3K4me3K14ac = assay: as above

Sequence of BAZ2B PHD domain (human) (Q9UIF8 whole entry, the tested form may be a part): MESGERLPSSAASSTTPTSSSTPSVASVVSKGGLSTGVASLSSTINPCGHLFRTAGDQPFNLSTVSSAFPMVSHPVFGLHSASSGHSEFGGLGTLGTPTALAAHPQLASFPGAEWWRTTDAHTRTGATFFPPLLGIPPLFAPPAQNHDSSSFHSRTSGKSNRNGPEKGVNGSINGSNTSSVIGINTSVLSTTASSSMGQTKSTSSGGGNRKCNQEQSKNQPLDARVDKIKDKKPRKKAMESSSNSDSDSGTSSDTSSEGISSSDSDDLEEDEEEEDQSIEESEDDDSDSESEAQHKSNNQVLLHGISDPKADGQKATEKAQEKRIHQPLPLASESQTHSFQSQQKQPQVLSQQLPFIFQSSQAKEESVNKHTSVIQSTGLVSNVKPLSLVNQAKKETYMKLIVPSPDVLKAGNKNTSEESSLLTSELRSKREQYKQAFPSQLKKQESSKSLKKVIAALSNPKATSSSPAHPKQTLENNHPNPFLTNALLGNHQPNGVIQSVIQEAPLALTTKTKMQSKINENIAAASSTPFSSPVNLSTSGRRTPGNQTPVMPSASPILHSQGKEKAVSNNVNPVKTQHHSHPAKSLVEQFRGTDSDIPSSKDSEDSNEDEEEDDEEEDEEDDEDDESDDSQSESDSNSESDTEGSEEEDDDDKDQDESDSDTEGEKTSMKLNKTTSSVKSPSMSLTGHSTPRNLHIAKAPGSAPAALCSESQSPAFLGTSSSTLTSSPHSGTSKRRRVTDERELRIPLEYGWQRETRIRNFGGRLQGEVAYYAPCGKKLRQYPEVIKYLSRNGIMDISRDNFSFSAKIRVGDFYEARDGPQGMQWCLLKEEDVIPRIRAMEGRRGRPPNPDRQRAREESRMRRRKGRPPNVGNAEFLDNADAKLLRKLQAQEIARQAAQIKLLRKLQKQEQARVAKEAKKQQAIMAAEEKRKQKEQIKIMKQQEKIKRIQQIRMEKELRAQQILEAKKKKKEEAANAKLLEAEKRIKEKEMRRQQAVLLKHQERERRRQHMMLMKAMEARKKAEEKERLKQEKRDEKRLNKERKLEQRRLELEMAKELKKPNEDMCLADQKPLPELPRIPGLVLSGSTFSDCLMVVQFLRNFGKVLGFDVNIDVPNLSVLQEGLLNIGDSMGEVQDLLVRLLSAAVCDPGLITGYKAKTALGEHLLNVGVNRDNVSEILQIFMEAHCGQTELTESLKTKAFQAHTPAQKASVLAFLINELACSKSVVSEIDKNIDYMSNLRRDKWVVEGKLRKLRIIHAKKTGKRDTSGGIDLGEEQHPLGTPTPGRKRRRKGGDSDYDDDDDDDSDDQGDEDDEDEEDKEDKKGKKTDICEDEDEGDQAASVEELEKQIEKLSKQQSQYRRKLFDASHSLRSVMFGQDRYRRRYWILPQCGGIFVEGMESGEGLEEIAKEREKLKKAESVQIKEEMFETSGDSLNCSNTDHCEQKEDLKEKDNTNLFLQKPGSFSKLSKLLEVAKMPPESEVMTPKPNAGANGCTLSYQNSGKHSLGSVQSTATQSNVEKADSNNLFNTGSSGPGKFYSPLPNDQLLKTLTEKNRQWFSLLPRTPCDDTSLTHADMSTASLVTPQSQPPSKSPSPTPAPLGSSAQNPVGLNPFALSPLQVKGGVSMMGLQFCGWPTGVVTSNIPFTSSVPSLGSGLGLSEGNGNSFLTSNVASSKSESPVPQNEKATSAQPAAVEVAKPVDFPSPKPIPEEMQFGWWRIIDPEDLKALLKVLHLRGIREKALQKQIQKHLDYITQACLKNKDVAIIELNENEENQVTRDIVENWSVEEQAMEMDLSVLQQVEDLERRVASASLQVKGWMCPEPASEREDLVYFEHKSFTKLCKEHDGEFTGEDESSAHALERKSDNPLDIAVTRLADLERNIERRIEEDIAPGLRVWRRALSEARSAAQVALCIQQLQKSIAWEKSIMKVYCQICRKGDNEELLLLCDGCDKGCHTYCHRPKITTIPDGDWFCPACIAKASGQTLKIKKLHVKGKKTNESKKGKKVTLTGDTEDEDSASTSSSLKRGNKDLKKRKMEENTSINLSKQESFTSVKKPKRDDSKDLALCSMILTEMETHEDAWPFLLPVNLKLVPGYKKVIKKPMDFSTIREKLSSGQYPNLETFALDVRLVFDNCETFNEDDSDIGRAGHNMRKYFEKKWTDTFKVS
Sequence of BAZ2B PHD-BRD WT (Q9UIF8 whole entry, the tested form may be a part): as above
Sequence of BAZ2B PHD–BRD (human) (Q9UIF8 whole entry, the tested form may be a part): as above

| Substance | Kd (BAZ2B PHD–BRD (human) [1]) [µM] | Kd (BAZ2B PHD domain (human)) [µM] | Kd (H3K4me3 (1-21)) [µM] | stoichiometry N (H3K4me3 (1-21)) | Kd (H3K4me1 (1-21)) [µM] | stoichiometry N (H3K4me1 (1-21)) | Kd (H3K14ac T6C) [µM] | stoichiometry N (H3K14ac T6C) | Kd (H3K4me2 (1-21)) [µM] | stoichiometry N (H3K4me2 (1-21)) | Kd (H3T6C (1-21)) [µM] | stoichiometry N (H3T6C (1-21)) | other results |
| --- | --- | --- | --- | --- | --- | --- | --- | --- | --- | --- | --- | --- | --- |
| histone H3(1–21aa) peptide, unmodified (from UniProt P68431 2-22) | 54 | 5.78 |  |  |  |  |  |  |  |  |  |  |  |
| histone H3(1–21aa)K14ac peptide (from UniProt P68431 2-22) |  |  |  |  |  |  |  |  |  |  |  |  | Kd estimated from BRD residues (BAZ2B PHD–BRD (human) [2]): > 8 µM; Kd estimated from PHD residues (BAZ2B PHD–BRD (human) [2]): > 190 µM |
| BAZ2B PHD WT (from UniProt Q9UIF8 1-2168) (domain or fragment) |  |  | 23.9 | 0.73 | 10.2 | 0.82 | 27 | 4.86 | 12.4 | 0.71 | 33.2 | 0.74 |  |
| histone H3(11–21aa) peptide (from UniProt P68431 12-22) | > 2000 | > 4000 |  |  |  |  |  |  |  |  |  |  |  |
| histone H3(1–10aa) peptide (from UniProt P68431 2-11) | 115 | 23.1 |  |  |  |  |  |  |  |  |  |  |  |
| BAZ2B PHD-BRD WT (from UniProt Q9UIF8 1-2168) (domain or fragment) |  |  | 130 | 1.89 | 88.4 | 1.94 | 50.4 | 2.92 | 123 | 1.76 | 148 | 1.59 | Kd (H3K4me2K14ac): 18.9 µM; stoichiometry N (H3K4me2K14ac): 0.45; Kd (H3K4me1K14ac): 26.9 µM; stoichiometry N (H3K4me1K14ac): 0.54; Kd (H3K4me3K14ac): 6.99 µM; stoichiometry N (H3K4me3K14ac): 0.54 |
